The target in experiment [1] is T1, FcγRIa (human, UniProt P12314 16-292).
T1 construct: extracellular domain; also called FcgRI; CD64
The experiment in a line: SPR (Biacore), captured antibody, soluble FcγR; relative to GpH7-A5/GpH7-B3/GpL16-k0 = 100. Here is the method: (§1) The heterodimerized antibodies He Abs in which one of the H chains was introduced with an alteration were assayed for their binding activities to each activating FcγR and inhibitory FcγR according to the method described in Example 4. […] The activating FcγRs in FIGS. 26, 27, 28, and 29 are FcγRIa, FcγRIIa (R), FcγRIIa (H), and FcγRIIIa, respectively.
(§2) Analysis of interaction between objective antibody and the FcγR was carried out using Biacore T100 (GE Healthcare). HBS-EP+ (GE Healthcare) was used as the running buffer, and the measurement temperature was set to 25° C. Chips produced by immobilizing the antigen peptide by the amine coupling method to a Series S Sencor Chip CM5 (GE Healthcare), or alternatively, chips produced by allowing preliminarily biotinylated antigen peptides to interact with and immobilize onto a Series S Sensor Chip SA (certified) (GE Healthcare) were used. Antibodies of interest were captured onto an antigen peptide-immobilized chip, and allowed to interact to each FcγR diluted with running buffer. To regenerate and repeatedly use the chip, the antibodies captured on the chip were washed off by reacting 10 mM glycine-HCl, pH 1.5.

A further experiment addresses T2, FcγRIIb (human, UniProt P31994 43-217).
T2 construct: extracellular domain; also called FcgRIIb; CD32B
T2 sequence (looked up): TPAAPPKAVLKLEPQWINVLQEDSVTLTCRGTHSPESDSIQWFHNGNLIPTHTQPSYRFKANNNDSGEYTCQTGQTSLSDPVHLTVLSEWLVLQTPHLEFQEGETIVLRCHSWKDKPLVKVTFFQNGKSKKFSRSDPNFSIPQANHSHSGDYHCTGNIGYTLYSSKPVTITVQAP
The description is as above. How it is done:
as §1, §2

Experiment [2] has as its target T1, FcγRIa. The experiment in a line: ratio of He/Con_1a to He/Con_2b (FcγRIa over FcγRIIb), SPR. How it is done: as §1, §2

T1 sequence (P12314 16-292): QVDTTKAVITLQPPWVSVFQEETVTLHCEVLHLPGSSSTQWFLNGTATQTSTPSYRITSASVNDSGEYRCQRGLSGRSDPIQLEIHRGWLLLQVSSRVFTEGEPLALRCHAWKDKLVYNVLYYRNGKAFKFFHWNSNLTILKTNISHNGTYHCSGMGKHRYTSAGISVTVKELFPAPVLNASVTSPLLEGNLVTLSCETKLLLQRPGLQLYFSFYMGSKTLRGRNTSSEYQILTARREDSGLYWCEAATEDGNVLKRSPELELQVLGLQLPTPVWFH

B1: GpH7-A5/GpH7-B3 variant P329_01G/GpL16-k0 (antibody, human IgG1, kappa)
heavy 1: not shown
heavy 2: not shown
light: DIVMTQSPLSLPVTPGEPASISCQASESLVHSNRNTYLHWYLQKPGQSPQLLIYKVSNRFSGVPDRFSGSGSGTDFTLKISRVEAEDVGVYYCSQNTHVPPTFGQGTKVEIERTVAAPSVFIFPPSDEQLKSGTASVVCLLNNFYPREAKVQWKVDNALQSGNSQESVTEQDSKDSTYSLSSTLTLSKADYEKHKVYACEVTHQGLSSPVTKSFNRGEC
notes: He Ab; mutation in the GpH7-B3 chain only; also called He Ab
With B1, the He/Con_1a with FcγRIa [1] was 101 % of control. Besides, the He/Con_2b with FcγRIIb is 41.7 % of control. Besides, the “He_1a/2b (Ia/IIb)” value with FcγRIa [2] stood at 2.42.

B2: GpH7-A5/GpH7-B3 variant A330_10E/GpL16-k0 (antibody, human IgG1, kappa)
heavy 1: not shown
heavy 2: not shown
light: DIVMTQSPLSLPVTPGEPASISCQASESLVHSNRNTYLHWYLQKPGQSPQLLIYKVSNRFSGVPDRFSGSGSGTDFTLKISRVEAEDVGVYYCSQNTHVPPTFGQGTKVEIERTVAAPSVFIFPPSDEQLKSGTASVVCLLNNFYPREAKVQWKVDNALQSGNSQESVTEQDSKDSTYSLSSTLTLSKADYEKHKVYACEVTHQGLSSPVTKSFNRGEC
notes: as for B1
With B2, the He/Con_1a in the experiment with FcγRIa [1] is 107 % of control. Also, in the experiment with FcγRIIb, the He/Con_2b is 70.1 % of control. In addition, in the experiment with FcγRIa [2], the “He_1a/2b (Ia/IIb)” value turned out to be 1.53.

B3: GpH7-A5/GpH7-B3 variant A327_20W/GpL16-k0 (antibody, human IgG1, kappa)
heavy 1: not shown
heavy 2: not shown
light: DIVMTQSPLSLPVTPGEPASISCQASESLVHSNRNTYLHWYLQKPGQSPQLLIYKVSNRFSGVPDRFSGSGSGTDFTLKISRVEAEDVGVYYCSQNTHVPPTFGQGTKVEIERTVAAPSVFIFPPSDEQLKSGTASVVCLLNNFYPREAKVQWKVDNALQSGNSQESVTEQDSKDSTYSLSSTLTLSKADYEKHKVYACEVTHQGLSSPVTKSFNRGEC
notes: as for B1
Consider B3, for which the He/Con_1a in the experiment with FcγRIa [1] was 97.7 % of control. The He/Con_2b in the experiment with FcγRIIb was 73.8 % of control. The “He_1a/2b (Ia/IIb)” value with FcγRIa [2] was found to be 1.24.

B4: GpH7-A5/GpH7-B3 variant A330_08L/GpL16-k0 (antibody, human IgG1, kappa)
heavy 1: not shown
heavy 2: not shown
light: DIVMTQSPLSLPVTPGEPASISCQASESLVHSNRNTYLHWYLQKPGQSPQLLIYKVSNRFSGVPDRFSGSGSGTDFTLKISRVEAEDVGVYYCSQNTHVPPTFGQGTKVEIERTVAAPSVFIFPPSDEQLKSGTASVVCLLNNFYPREAKVQWKVDNALQSGNSQESVTEQDSKDSTYSLSSTLTLSKADYEKHKVYACEVTHQGLSSPVTKSFNRGEC
notes: as for B1
As for B4, the He/Con_1a with FcγRIa [1] was 107 % of control. Moreover, in the experiment with FcγRIIb, the He/Con_2b was 70.5 % of control. Besides, in the experiment with FcγRIa [2], the “He_1a/2b (Ia/IIb)” value was determined as 1.52.

B5: GpH7-A5/GpH7-B3 variant A330_14T/GpL16-k0 (antibody, human IgG1, kappa)
heavy 1: not shown
heavy 2: not shown
light: DIVMTQSPLSLPVTPGEPASISCQASESLVHSNRNTYLHWYLQKPGQSPQLLIYKVSNRFSGVPDRFSGSGSGTDFTLKISRVEAEDVGVYYCSQNTHVPPTFGQGTKVEIERTVAAPSVFIFPPSDEQLKSGTASVVCLLNNFYPREAKVQWKVDNALQSGNSQESVTEQDSKDSTYSLSSTLTLSKADYEKHKVYACEVTHQGLSSPVTKSFNRGEC
notes: as for B1
For B5, the He/Con_1a with FcγRIa [1] is 105 % of control. Besides, the He/Con_2b with FcγRIIb is 77.9 % of control. The “He_1a/2b (Ia/IIb)” value in the experiment with FcγRIa [2] turned out to be 1.35.

B6: GpH7-A5/GpH7-B3 variant A330_16H/GpL16-k0 (antibody, human IgG1, kappa)
heavy 1: not shown
heavy 2: not shown
light: DIVMTQSPLSLPVTPGEPASISCQASESLVHSNRNTYLHWYLQKPGQSPQLLIYKVSNRFSGVPDRFSGSGSGTDFTLKISRVEAEDVGVYYCSQNTHVPPTFGQGTKVEIERTVAAPSVFIFPPSDEQLKSGTASVVCLLNNFYPREAKVQWKVDNALQSGNSQESVTEQDSKDSTYSLSSTLTLSKADYEKHKVYACEVTHQGLSSPVTKSFNRGEC
notes: as for B1
As to B6, in the experiment with FcγRIa [1], the He/Con_1a is 106 % of control. The He/Con_2b in the experiment with FcγRIIb is 87.6 % of control. In addition, the “He_1a/2b (Ia/IIb)” value in the experiment with FcγRIa [2] stood at 1.21.

B7: GpH7-A5/GpH7-B3 variant A327_16H/GpL16-k0 (antibody, human IgG1, kappa)
heavy 1: not shown
heavy 2: not shown
light: DIVMTQSPLSLPVTPGEPASISCQASESLVHSNRNTYLHWYLQKPGQSPQLLIYKVSNRFSGVPDRFSGSGSGTDFTLKISRVEAEDVGVYYCSQNTHVPPTFGQGTKVEIERTVAAPSVFIFPPSDEQLKSGTASVVCLLNNFYPREAKVQWKVDNALQSGNSQESVTEQDSKDSTYSLSSTLTLSKADYEKHKVYACEVTHQGLSSPVTKSFNRGEC
notes: as for B1
Take B7: the He/Con_1a in the experiment with FcγRIa [1] was 96.5 % of control. Also, the He/Con_2b with FcγRIIb was 63.5 % of control. Moreover, in the experiment with FcγRIa [2], the “He_1a/2b (Ia/IIb)” value was 1.52.

B8: GpH7-A5/GpH7-B3 variant A330_06M/GpL16-k0 (antibody, human IgG1, kappa)
heavy 1: not shown
heavy 2: not shown
light: DIVMTQSPLSLPVTPGEPASISCQASESLVHSNRNTYLHWYLQKPGQSPQLLIYKVSNRFSGVPDRFSGSGSGTDFTLKISRVEAEDVGVYYCSQNTHVPPTFGQGTKVEIERTVAAPSVFIFPPSDEQLKSGTASVVCLLNNFYPREAKVQWKVDNALQSGNSQESVTEQDSKDSTYSLSSTLTLSKADYEKHKVYACEVTHQGLSSPVTKSFNRGEC
notes: as for B1
On to B8, for which the He/Con_1a with FcγRIa [1] is 105 % of control. In the experiment with FcγRIIb, the He/Con_2b was 80.5 % of control. In the experiment with FcγRIa [2], the “He_1a/2b (Ia/IIb)” value is 1.3.

B9: GpH7-A5/GpH7-B3 variant A330_09D/GpL16-k0 (antibody, human IgG1, kappa)
heavy 1: not shown
heavy 2: not shown
light: DIVMTQSPLSLPVTPGEPASISCQASESLVHSNRNTYLHWYLQKPGQSPQLLIYKVSNRFSGVPDRFSGSGSGTDFTLKISRVEAEDVGVYYCSQNTHVPPTFGQGTKVEIERTVAAPSVFIFPPSDEQLKSGTASVVCLLNNFYPREAKVQWKVDNALQSGNSQESVTEQDSKDSTYSLSSTLTLSKADYEKHKVYACEVTHQGLSSPVTKSFNRGEC
notes: as for B1
For B9, the He/Con_1a with FcγRIa [1] was 109 % of control. Also, in the experiment with FcγRIIb, the He/Con_2b was 55.6 % of control. In addition, in the experiment with FcγRIa [2], the “He_1a/2b (Ia/IIb)” value turned out to be 1.95.

B10: GpH7-A5/GpH7-B3 variant A327_19Q/GpL16-k0 (antibody, human IgG1, kappa)
heavy 1: not shown
heavy 2: not shown
light: DIVMTQSPLSLPVTPGEPASISCQASESLVHSNRNTYLHWYLQKPGQSPQLLIYKVSNRFSGVPDRFSGSGSGTDFTLKISRVEAEDVGVYYCSQNTHVPPTFGQGTKVEIERTVAAPSVFIFPPSDEQLKSGTASVVCLLNNFYPREAKVQWKVDNALQSGNSQESVTEQDSKDSTYSLSSTLTLSKADYEKHKVYACEVTHQGLSSPVTKSFNRGEC
notes: as for B1
Regarding B10, the He/Con_1a with FcγRIa [1] is 96.2 % of control. Also, the He/Con_2b with FcγRIIb is 54.2 % of control. Also, the “He_1a/2b (Ia/IIb)” value with FcγRIa [2] stood at 1.78.

B11: GpH7-A5/GpH7-B3 variant A330_03V/GpL16-k0 (antibody, human IgG1, kappa)
heavy 1: not shown
heavy 2: not shown
light: DIVMTQSPLSLPVTPGEPASISCQASESLVHSNRNTYLHWYLQKPGQSPQLLIYKVSNRFSGVPDRFSGSGSGTDFTLKISRVEAEDVGVYYCSQNTHVPPTFGQGTKVEIERTVAAPSVFIFPPSDEQLKSGTASVVCLLNNFYPREAKVQWKVDNALQSGNSQESVTEQDSKDSTYSLSSTLTLSKADYEKHKVYACEVTHQGLSSPVTKSFNRGEC
notes: as for B1
B11: the He/Con_1a with FcγRIa [1] is 106 % of control. Moreover, the He/Con_2b with FcγRIIb was 52.4 % of control. Also, the “He_1a/2b (Ia/IIb)” value with FcγRIa [2] is 2.01.

B12: GpH7-A5/GpH7-B3 variant A330_13S/GpL16-k0 (antibody, human IgG1, kappa)
heavy 1: not shown
heavy 2: not shown
light: DIVMTQSPLSLPVTPGEPASISCQASESLVHSNRNTYLHWYLQKPGQSPQLLIYKVSNRFSGVPDRFSGSGSGTDFTLKISRVEAEDVGVYYCSQNTHVPPTFGQGTKVEIERTVAAPSVFIFPPSDEQLKSGTASVVCLLNNFYPREAKVQWKVDNALQSGNSQESVTEQDSKDSTYSLSSTLTLSKADYEKHKVYACEVTHQGLSSPVTKSFNRGEC
notes: as for B1
Regarding B12, the He/Con_1a with FcγRIa [1] was 91.5 % of control. Besides, in the experiment with FcγRIIb, the He/Con_2b was 41.3 % of control. Also, the “He_1a/2b (Ia/IIb)” value in the experiment with FcγRIa [2] was 2.22.

B13: GpH7-A5/GpH7-B3 variant A330_07I/GpL16-k0 (antibody, human IgG1, kappa)
heavy 1: not shown
heavy 2: not shown
light: DIVMTQSPLSLPVTPGEPASISCQASESLVHSNRNTYLHWYLQKPGQSPQLLIYKVSNRFSGVPDRFSGSGSGTDFTLKISRVEAEDVGVYYCSQNTHVPPTFGQGTKVEIERTVAAPSVFIFPPSDEQLKSGTASVVCLLNNFYPREAKVQWKVDNALQSGNSQESVTEQDSKDSTYSLSSTLTLSKADYEKHKVYACEVTHQGLSSPVTKSFNRGEC
notes: as for B1
B13: in the experiment with FcγRIa [1], the He/Con_1a was 105 % of control. Besides, the He/Con_2b with FcγRIIb is 67.1 % of control. Moreover, the “He_1a/2b (Ia/IIb)” value with FcγRIa [2] was 1.57.

The values above are taken from patent US20150344570A1 (published 2015).
